Assay results published in US12018084B2, “Anti-CXCR2 antibodies and uses thereof” (Cephalon LLC, priority 2018, dated 2024).
Substitutions are numbered along the chain they refer to. In names and notes the source's numbering stands.

T1: Murine CXCR2 (Mus musculus, UniProt P35343)
T1 construct: expressed in transfected cells
T1 sequence (P35343 1-359): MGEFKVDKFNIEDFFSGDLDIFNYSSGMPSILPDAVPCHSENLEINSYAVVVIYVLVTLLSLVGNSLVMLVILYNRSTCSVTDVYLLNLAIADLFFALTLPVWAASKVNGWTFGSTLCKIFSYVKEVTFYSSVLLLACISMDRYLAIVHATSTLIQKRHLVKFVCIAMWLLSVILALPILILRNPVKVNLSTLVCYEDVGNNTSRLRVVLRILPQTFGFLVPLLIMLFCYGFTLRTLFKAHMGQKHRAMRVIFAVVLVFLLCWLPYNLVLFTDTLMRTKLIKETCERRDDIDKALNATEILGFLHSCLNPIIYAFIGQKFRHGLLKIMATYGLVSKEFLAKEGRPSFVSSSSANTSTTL

T2: Human CXCR2 (Homo sapiens, UniProt P25025)
T2 sequence (P25025 1-360): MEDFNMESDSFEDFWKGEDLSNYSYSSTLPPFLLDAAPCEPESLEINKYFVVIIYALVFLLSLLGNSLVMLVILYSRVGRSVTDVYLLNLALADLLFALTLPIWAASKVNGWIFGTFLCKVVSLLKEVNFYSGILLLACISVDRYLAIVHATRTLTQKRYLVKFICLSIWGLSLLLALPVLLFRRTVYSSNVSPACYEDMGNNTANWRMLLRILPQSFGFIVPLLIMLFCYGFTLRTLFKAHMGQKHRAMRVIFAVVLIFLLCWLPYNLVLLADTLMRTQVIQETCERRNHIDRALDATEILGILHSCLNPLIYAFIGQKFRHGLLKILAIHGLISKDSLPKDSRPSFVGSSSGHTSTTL

B1: BKO-9A8: VH SEQ ID NO: 47, VL SEQ ID NO: 48 (antibody, V domains shown)
VH: EVQLLESGGGLVQTGGSLRLSCAASGFTFSSNTMSWVRQAPGKGLEWVSAISGSGGRTYYVDSVKGRFTISRDNSKNTLYLQMHSLRAEDTAVYYCAIQLGSWGQGILVTVSS
VL: QSALTQPPSASGSPGQSVTISCTGTSSDVGAYNYVSWYQQHPGKAPKLMIYEVTKRPSGVPDRFSGSKSGNTASLTVSGLQAEDEADYYCSSYAGNNNFGVFGGGTKLTVL
modifications: BKO_9A8_H3_F03_VH; BKO_9A8_L1_H02_VL
B2: BKO-8H10: VH SEQ ID NO: 43, VL SEQ ID NO: 44 (antibody, V domains shown)
VH: QVQLVQSGAEVKKPGASVKVSCKASGYTFTGYYIHWVRQAPGQGLEWMGRIKPDSGGTNYAQKFQGRVTMTRDTSITTAYMELSRLRSDDTAVYYCARGGSGWDYWGQGTLVTVSS
VL: QSALTQPPSASGSPGQSVTISFTGTSRDVGDYNYVSWYQQHPGKAPKLMIYEVNKRPSGVPDRFSGSKSGNTASLTVSGLQAEDEADYYCSSYAGSNTYVFGTGTKVTVL
modifications: BKO_8H10_VH; BKO_8H10_VL
B3: BKO-10G10: VH SEQ ID NO: 51, VL SEQ ID NO: 52 (antibody, V domains shown)
VH: QLQLQESGPGLVKPSETLSLTCTVSGGSIRRSSYYWGWIRQPPGKGLEWIGSFYNSGNTYYKPSLKSRVAISVDTPKNQFSLKLSSVTAADTAVYYCARGYSSGGFDPWGQGTLVTVSS
VL: QSALTQPASVSGSPGQSITISCTGTSSDVGGYNYVSWCQQHPGKAPKIMIFDVSNRPSGVSNRFSGSKSGNTASLTISGLQAEDEADYYCSSYTSSSTWVFGGGTRLTVL
modifications: BKO_10G10_VH; BKO_10G10_VL
B4: BKO-1B10: VH SEQ ID NO: 3, VL SEQ ID NO: 4 (antibody, V domains shown)
VH: QLQLQESGPGLVKPSETLSLTCTVSGGSIRTSSYYWGWIRQPPGKGLEYIGSIYYSGTTYYNPSLKSRVTMSVDTSKNQFSLKLSSVTAADTAVYYCARHGRVREVPPFDYWGQGTLVTVSS
VL: SSELTQDPAVSVALGQTVRITCQGDSLRYYYASWYQQKPGQAPVLVIYDENSRPSGIPDRFSGSSSGNTASLRITGTQAEDEADYYCNSRDTSGNHWAFGGGTKLTVL
modifications: BKO_1B10_VH; BKO_1B10_VL
B5: 103c: VH SEQ ID NO: 163, VL SEQ ID NO: 110 (antibody, V domains shown)
VH: B1 VH with T14P, N32S, M34Q, A40P, R57S, V61A, H84N, L100M, S102Y
VL: B1 VL with T23I, A31G, T54S, N96S
modifications: 4A8 VH Variant 103 M34Q_A40P_R53S_R55G_N56S_ R75K; 4A8 VL variant c D41G_N52S_N94S
B6: 105c: VH SEQ ID NO: 165, VL SEQ ID NO: 110 (antibody, V domains shown)
VH: B1 VH with T14P, N32S, M34Q, A40P, R57S, V61A, H84N, L100A, S102Y
VL: B1 VL with T23I, A31G, T54S, N96S
modifications: 4A8 VH Variant 105 M34Q_A40P_R53S_R55G_N56S_ R75K_M96A; 4A8 VL variant c D41G_N52S_N94S
B7: 104c: VH SEQ ID NO: 164, VL SEQ ID NO: 110 (antibody, V domains shown)
VH: B1 VH with T14P, N32S, M34Q, A40P, R57S, V61A, H84N, L100K, S102Y
VL: B1 VL with T23I, A31G, T54S, N96S
modifications: 4A8 VH Variant 104 M34Q_A40P_R53S_R55G_N56S_ R75K_M96K; 4A8 VL variant c D41G_N52S_N94S

target: T1, Murine CXCR2; assay: cELISA of hybridoma supernatants on cells transfected with murine CXCR2; type: binding; conditions: hybridoma supernatant; fluorescence units relative to positive control (100%)

Row | Murine CXCR2 % Positive [%] | Molecule
1 | 8 | B1
2 | 8 | B2
3 | 4 | B3
4 | 4 | B4

target: T2, Human CXCR2; assay: cELISA of hybridoma supernatants on cells transfected with human CXCR2; type: binding; design: host or cells: Expi293F cells, vector pTT5; conditions: hybridoma supernatant; fluorescence units relative to positive control (100%)
Protocol: To generate hybridomas which produced monoclonal antibodies to human CXCR2, splenocytes and/or lymph node cells from animals with the highest anti-CXCR2 titres were isolated and fused to mouse myeloma cells (ATCC, CRL-1580). Cells were plated at approximately 1×10^5 cells/mL in flat bottom microtiter plates, followed by a two week incubation in selective medium (10% FCS and 1×HAT (Sigma)). Hybridomas were expanded by serial passage through four media changes in 96-well plates (96-well stages 1 to 4), then, where required, expanded into T25 and T75 flasks. […] Bound antibodies were detected using a goat anti-rat IgG-HRP (Southern Biotech, #3030-05) secondary antibody.
A panel of hybridomas was generated using lymph nodes and spleen cells from the transgenic rats engineered to express human variable region sequences. A cellular ELISA (cELISA) was used to detect human CXCR2 binding activity in supernatants taken during the expansion process for the hybridomas (Table 5). Hybridomas that retained expression of antibodies that bound CXCR2 after several passages were selected for DNA sequencing.

Row | Human CXCR2 % Positive [%] | Molecule
5 | 124 | B1
6 | 81 | B2
7 | 89 | B3
8 | 75 | B4

target: T2, Human CXCR2; assay: Tango CXCR2-bla U2OS cell-based β-arrestin recruitment assay; design: The beta-arrestin/TEV protease fusion and the beta-lactamase reporter are separate parts of the cell line; conditions: CXCL1 or CXCL8 as agonist
Text: Cells were thawed, propagated, cultured and frozen according to the manufacturer's directions.
Preparation of Tango™ CXCR2-bla U2OS cells for use in cell-based assays: The manufacturer's protocol was altered to make use of 96-well plates instead of 384-well plates. Briefly, dividing cells were harvested one day prior to use. Cells were harvested and resuspended in assay medium (100% FreeStyle™ Expression Medium; Life Technologies; Cat #12338-018) at a viable cell density of 312,500 cells/mL. 128 μL of cell suspension was added per well in 96-well black-walled, clear bottom tissue culture-treated plates. Cells were incubated for 16-20 hrs at 37° C. in an atmosphere of 5% CO2 prior to use in assays.
Tango™ assay procedure: Assays were set up and run as described in the manufacturer's protocol. For antagonist assays, agonists were used at concentrations in the EC50-EC80 range. Assays were read using a FlexStation® 3 (Molecular Devices) fluorescence plate reader configured with the parameters given in Table 4. The blue/green emission ratio for each well was calculated by dividing the blue emission values by the green emission values. All inhibition curves were fitted using a four-parameter dose-response using GraphPad Prism™ (Version 7.01).
The Human CXCR2 Tango™ cell line was used to assess the ability of antibody BKO-4A8-101c to inhibit β-arrestin recruitment to agonist-activated CXCR2. All human ELR+ chemokine CXCR2 ligands were tested in antagonist dose response assays using calculated EC50 values of agonist.
The commercially available reporter cell line Tango™ CXCR2-bla U2OS (ThermoFisher Scientific) was used to assess the ability of the anti-CXCR2 antibodies to inhibit β-arrestin recruitment to agonist-activated CXCR2. Agonists were provided at their assay EC50 concentration for antagonist assays.

Row | potency compared to the parental antibody | Molecule
9 | reduced potency | B5
10 | reduced potency | B6
11 | reduced potency | B7
